The term Km denotes the concentration of substrate that gives half-maximal velocity. In general, kcat refers to the number of substrate molecules converted per active site and unit of time at saturation.

A short description of data set [1]: Michaelis-Menten enzyme kinetics of the SSL-1 reaction (3H-FPP to PSPP). Format: biochemical. The note with it: after acid phosphatase dephosphorylation. The protocol:
FIG. 5 depicts Michaelis-Menten enzyme kinetics of the SSL-1 reaction. Enzyme assays (50 μl) were set up as described in the methods section with purified SSL-1 (0.2-1.0 μg), 0.1% triton X-100, ±2 mM NADPH, and the indicated concentration of ^3H-FPP. Assays were incubated for 15 min at 37° C. and stopped by addition of 50 μl 0.5 M EDTA. The reactions were then extracted 3× with 200 μl water saturated 1-butanol and pooled in a 4 ml glass screw cap vial. […] The standards were visualized with iodine vapors and the zones corresponding to FOH (rf=0.65) and PSOH (rf=0.45) were scraped and analyzed by scintillation spectroscopy. […] The data was analyzed using the SigmaPlot Enzyme Kinetics 1.3 software. […]
Typical enzyme assays were initiated by mixing aliquots of purified enzyme with 50 mM Mops, pH 7.3, 20 mM MgCl2, 2.5 mM 2-mercaptoethanol, 10 μM [1-^3H]-FPP (˜2×10^5 dpm total), and 2 mM NADPH in total reaction volume of 50 μl. […] The standards were visualized with iodine vapors and TLC zones corresponding to the standards were scrapped and analyzed by scintillation spectrometry. […] Extracts were resuspended in 50 μl hexane and an aliquot analyzed by GC-MS with a Varian CP-3800 GC coupled to a Varian Saturn 2200 MS/MS (Varian Medical Systems) using a Supelco SLB-5 ms fused silica capillary column (30 m×0.25 mm×0.25 μM film thickness, Supelco). […]

Data set [2] is described as follows: Primary enzyme assay with 3H-FPP, PSPP content by acid phosphatase assay. Format: biochemical. Particulars: 20 μg enzyme, 40 μM 3H-FPP, 37° C., 1 h. The protocol: (§1) Two primary enzyme assays (500 μl) were set up with 20 μg of purified SSL-1 or Nicotiana benthamiana squalene synthase (TSS) plus 40 μM ^3H-FPP. The assays were incubated at 37° C. for 1 h, then extracted 3× with 500 μl water saturated 1-butanol, pooled, and evaporated under a stream of nitrogen gas. The white residue was resuspended in 50 μl of 25 mM NH4HCO3 in 70% ethanol (v/v). An aliquot of the resuspension was analyzed by the acid phosphatase assay (described in supplemental FIG. 4) and shown to consist of 45% and 40% PSPP for the SSL-1 and TSS primary incubations, respectively. […] It was calculated that 1 μl of each resuspension contained ˜150 pmoles of 3H-PSPP. […] For comparison, enzyme assays were also set up containing 3 μM ^3H-FPP, 2 mM NADPH and either 1 μg each of SSL-1 plus SSL-3, or SSL-1 plus SSL-2. Additional control assays contained 5 μM ^3H-FPP, 2 mM NADPH, and either 1 μg of SSL-3 or SSL-2. The reactions were incubated at 37° C. for 15 min, stopped by addition of 50 μl 0.5 M EDTA, and extracted with 100 μl n-hexane. Aliquots of the hexane extracts, along with standards of squalene and botryococcene, were separated by silica TLC using n-hexane as the developing solvent. Standards were visualized with iodine vapors and the corresponding zones were analyzed by scintillation spectroscopy. […]

Substrate in data set [3]: CC(C)=CCC/C(C)=C/CC/C(C)=C/CO[P@@](=O)(O)OP(=O)(O)O
The data set can be described thus: purified protein, by the assay type. The note with it: other: purified SSL-1, 3H-FPP, 0.1% triton X-100, 15 min at 37° C., PSPP as sole reaction product.

The nature of data set [4]: Secondary enzyme assays of SSL-3 or SSL-2 with PSPP versus FPP. Format: biochemical. Particulars: 2 mM NADPH, 1 μg enzyme, 37° C., 15 min. The protocol: as §1

B1: Botryococcus braunii race B squalene synthase-like 1 (SSL-1), wild type, hexa-histidine tagged, SEQ ID NO: 2 (Botryococcus braunii) (protein)
chain: MTMHQDHGVMKDLVKHPNEFPYLLQLAATTYGSPAAPIPKEPDRAFCYNTLHTVSKGFPRFVMRLPQELQDPICIFYLLLRALDTVEDDMNLKSETKISLLRVFHEHCSDRNWSMKSDYGIYADLMERFPLVVSVLEKLPPATQQTFRENVKYMGNGMADFIDKQILTVDEYDLYCHYVAGSCGIAVTKVIVQFNLATPEADSYDFSNSLGLLLQKANIITDYNEDINEEPRPRMFWPQEIWGKYAEKLADFNEPENIDTAVKCLNHMVTDAMRHIEPSLKGMVYFTDKTVFRALALLLVTAFGHLSTLYNNPNVFKEKVRQRKGRIARLVMSSRNVPGLFRTCLKLANNFESRCKQETANDPTVAMTIKRLQSIQATCRDGLAKYDTPSGLKSFCAAPTPTK
As for B1, the “input radioactivity recovered as FOH and PSOH” value in data set [1] is “greater than 95%”. Moreover, the “PSPP share of reaction product of primary incubation” value in data set [2] was 45%. Further, in data set [3], the Michaelis constant (Km) stood at 12.8 µM and the catalytic constant (kcat) was 0.027 s⁻¹.

B2: SSL-2: Botryococcus braunii race B squalene synthase-like 2 enzyme; bacterial form is truncated SSL-2-tr2 (protein)
chain: MVKLVEVLQHPDEIVPILQMLHKTYRAKRSYKDPGLAFCYGMLQRVSRSFSVVIQQLPDELRHPICVFYLILRALDTVEDDMNLPNEVKIPLLRTFHEHLFDRSWKLKCGYGPYVDLMENYPLVTDVFLTLSPGAQEVIRDSTRRMGNGMADFIGKDEVHSVAEYDLYCHYVAGLVGSAVAKIFVDSGLEKENLVAEVDLANNMGQFLQKTNVIRDYLEDINEEPAPRMFWPREIWGKYAQELADFKDPANEKAAVQCLNHMVTDALRHCEIGLNVIPLLQNIGILRSCLIPEVMGLRTLTLCYNNPQVFRGVVKMRRGETAKLFMSIYDKRSFYQTYLRLANELEAKCKGEASGDPMVATTLKHVHGIQKSCKAALSSKELLAKSGSALTDDPAIRLLLLVGVVAYFAYAFNLGDVRGEHGVRALGSILDLSQKGLAVASVALLLLVLLARSRLPLLTSASSKQ
For the molecule B2, the “biosynthesis from PSPP versus FPP” value in data set [4] is “efficiently catalyze the biosynthesis of squalene and botryococcene, respectively, from PSPP but not FPP”.

(Values after patent publication US8822187B1, “Polypeptides, nucleic acid molecules, and methods for synthesis of triterpenes” (University of Kentucky Research Foundation, priority 2011, dated 2014).)
